Data: US20240287172A1 (SCIRHOM, published 2024)

T1: hiR2-FL-H505A-T7 (human, UniProt Q6PJF5 1-856)
T1 sequence: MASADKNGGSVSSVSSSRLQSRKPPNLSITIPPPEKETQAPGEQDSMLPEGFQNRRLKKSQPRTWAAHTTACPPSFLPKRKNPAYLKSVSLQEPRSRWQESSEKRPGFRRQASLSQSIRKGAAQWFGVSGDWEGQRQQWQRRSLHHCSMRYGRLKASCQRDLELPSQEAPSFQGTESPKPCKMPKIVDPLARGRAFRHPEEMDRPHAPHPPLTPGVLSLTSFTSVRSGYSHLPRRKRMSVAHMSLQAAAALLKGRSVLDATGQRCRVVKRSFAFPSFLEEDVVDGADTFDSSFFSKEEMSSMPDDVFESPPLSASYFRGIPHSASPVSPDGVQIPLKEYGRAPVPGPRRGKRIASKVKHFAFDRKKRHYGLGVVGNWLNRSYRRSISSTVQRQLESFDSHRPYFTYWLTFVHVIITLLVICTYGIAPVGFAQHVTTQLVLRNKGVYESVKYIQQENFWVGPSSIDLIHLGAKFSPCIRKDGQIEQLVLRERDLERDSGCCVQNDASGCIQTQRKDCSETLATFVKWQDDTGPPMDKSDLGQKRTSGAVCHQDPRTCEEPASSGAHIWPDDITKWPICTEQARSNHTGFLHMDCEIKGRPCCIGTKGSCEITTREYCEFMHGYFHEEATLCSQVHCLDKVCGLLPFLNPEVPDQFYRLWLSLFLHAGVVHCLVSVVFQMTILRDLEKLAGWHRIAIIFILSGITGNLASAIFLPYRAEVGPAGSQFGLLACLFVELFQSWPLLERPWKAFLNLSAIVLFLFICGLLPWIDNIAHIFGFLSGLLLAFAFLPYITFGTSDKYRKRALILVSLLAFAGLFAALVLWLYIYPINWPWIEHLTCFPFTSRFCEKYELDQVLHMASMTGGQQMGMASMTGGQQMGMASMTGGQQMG

T2: hiR2-FL-P533A-T7 (human, UniProt Q6PJF5 1-856)
T2 sequence: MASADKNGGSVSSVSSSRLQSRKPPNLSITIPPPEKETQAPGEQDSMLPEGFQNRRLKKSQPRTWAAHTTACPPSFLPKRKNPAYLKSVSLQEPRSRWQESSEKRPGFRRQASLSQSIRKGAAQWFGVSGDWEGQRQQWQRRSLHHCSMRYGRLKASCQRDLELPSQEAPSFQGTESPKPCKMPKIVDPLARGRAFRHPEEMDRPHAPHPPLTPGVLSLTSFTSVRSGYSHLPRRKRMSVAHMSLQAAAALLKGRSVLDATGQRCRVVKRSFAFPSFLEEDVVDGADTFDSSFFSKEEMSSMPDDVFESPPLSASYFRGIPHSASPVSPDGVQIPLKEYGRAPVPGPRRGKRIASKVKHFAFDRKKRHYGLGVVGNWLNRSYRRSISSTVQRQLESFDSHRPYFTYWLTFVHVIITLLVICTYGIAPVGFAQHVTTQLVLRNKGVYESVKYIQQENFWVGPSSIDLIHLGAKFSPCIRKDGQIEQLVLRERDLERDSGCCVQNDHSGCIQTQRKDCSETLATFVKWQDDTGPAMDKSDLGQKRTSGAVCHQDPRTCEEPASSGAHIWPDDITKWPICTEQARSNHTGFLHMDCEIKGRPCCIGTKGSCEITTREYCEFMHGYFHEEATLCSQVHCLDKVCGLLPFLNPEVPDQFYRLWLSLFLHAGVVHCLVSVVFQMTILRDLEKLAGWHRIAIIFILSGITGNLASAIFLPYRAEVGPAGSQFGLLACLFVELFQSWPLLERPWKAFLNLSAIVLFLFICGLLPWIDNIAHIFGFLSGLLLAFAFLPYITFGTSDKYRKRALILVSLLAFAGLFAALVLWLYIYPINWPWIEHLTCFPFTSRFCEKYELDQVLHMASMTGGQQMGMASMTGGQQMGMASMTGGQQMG


Tests used:
hiR2-FL-H505A-T7 = molecular target: T1, hiR2-FL-H505A-T7; assay: FACS on MEF-DKO cells expressing the variant, 3 µg/ml antibody
In short: (§1)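 Cells stained with purified antibody at 3 μg/ml for 1 h on ice, then with PE-conjugated goat anti-mouse IgG F(ab′)2 (1:100) for 1 h on ice in the dark. Binding read by flow cytometry; buffer-only staining as control.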

hiR2-FL-P533A-T7 = molecular target: T2, hiR2-FL-P533A-T7; assay: as above
In short: as §1

Binder	loss of binding vs wild type (hiR2-FL-H505A-T7)	loss of binding vs wild type (hiR2-FL-P533A-T7)
antibody 50 (antibody, V domains shown, mouse IgG, kappa light chain; also called clone #50; purified antibody 50) VH: QVQLQQSGAELVRPGASVKVSCKASGYAFSNYLIEWVKQRPGQGLEWIGVINPGSGFTKYNEKFKGKATLTADKSSSTAYMQLSSLTSEDSAVYFCARGLYRAMDYWGQGTSVTVSS VL: DIQMTQSPASQSASLGESVTITCLASQTIGTWLAWYQQKPGKSPQLLIYAAASLADGVPSRFSGGGSGTKFSFKISSLQAEDFVNYYCQQIYSTPYTFGGGTKLEIK	≥ 30%	–
antibody 34 (antibody, V domains shown, mouse IgG, kappa light chain; also called clone #34; purified antibody 34) VH: QVTLKESGPGILQPSQTLSLTCSFSGFSLSTFSLGVGWIRQSSGKGLEWLAHIWWDDEKYYNPALKSRLTISKDTSKNQVFLKIANVDAADTATYYCARAYYSKSYYALDYWGQGTSVTVSS VL: DIQMTQSPSSLSASLGERVSLTCRASQEISGYLSWLQQKPDGTIKRLIYAASTLDSGVPKRFSGSRSGSDYSLAISSLESEDFADYYCLQYANFPFTFGSGTKLEIK	–	≥ 30%
